Laboratory results reported in paper PMC9751095.

Biological target: Myc-TRAP1 (human) (UniProt Q12931)
Experiment: SPR; printed as "Ka 26 µM"
Conditions: enzyme; chains chain; remark: other sources report otherwise

Chain of purified recombinant human cyclophilin D, P30405 30-207 (P30405 30-207): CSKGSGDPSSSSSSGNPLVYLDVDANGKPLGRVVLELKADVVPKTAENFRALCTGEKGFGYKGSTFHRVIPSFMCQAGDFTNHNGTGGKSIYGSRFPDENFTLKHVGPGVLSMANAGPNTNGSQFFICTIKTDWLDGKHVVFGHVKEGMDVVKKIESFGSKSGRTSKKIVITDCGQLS
Chain of Myc-TRAP1 (human) (Q12931 60-704): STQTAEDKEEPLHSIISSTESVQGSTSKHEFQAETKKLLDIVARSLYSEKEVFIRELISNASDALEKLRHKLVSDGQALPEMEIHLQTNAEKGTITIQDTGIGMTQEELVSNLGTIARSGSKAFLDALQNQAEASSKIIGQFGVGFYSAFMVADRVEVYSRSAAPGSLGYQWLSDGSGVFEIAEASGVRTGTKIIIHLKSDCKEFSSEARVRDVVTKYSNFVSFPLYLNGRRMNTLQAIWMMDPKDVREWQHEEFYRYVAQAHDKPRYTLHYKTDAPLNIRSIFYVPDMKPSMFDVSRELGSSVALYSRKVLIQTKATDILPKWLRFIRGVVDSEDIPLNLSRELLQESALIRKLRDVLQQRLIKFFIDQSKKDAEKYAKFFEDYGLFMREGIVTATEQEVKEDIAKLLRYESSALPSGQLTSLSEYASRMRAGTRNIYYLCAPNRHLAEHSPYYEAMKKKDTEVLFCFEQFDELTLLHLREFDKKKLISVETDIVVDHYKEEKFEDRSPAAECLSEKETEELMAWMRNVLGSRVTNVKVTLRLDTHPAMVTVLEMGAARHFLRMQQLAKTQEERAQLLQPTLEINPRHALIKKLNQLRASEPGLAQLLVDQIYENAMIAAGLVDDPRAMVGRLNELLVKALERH

Kd: 26 µM
Substance: purified recombinant human cyclophilin D, P30405 30-207
